Experimental data reported in US20230120018A1, “PREDICTION OF PEPTIDE CLEAVAGE IN POLYPEPTIDES THROUGH PHYSICS-BASED SIMULATIONS” (Genentech, Inc., priority 2020, published 2023).

Test: Asn-Pro hydrolysis in unstructured linear peptide mimics of CDR-L3 at accelerated temperature
Assay type: physicochemical
Conditions: pH 7.4, 90° C.
Procedure: To examine the effect of antibody structure on the rate of Asn-Pro hydrolysis, thermal stress was performed on unstructured, linear peptides representing the CDR-L3 sequence of Fab1 and Mab3. Since it had been previously shown that the rate of hydrolysis in unstructured peptides incubated at 37° C. was slow, accelerated temperature conditions (90 and 70° C.) were performed and the temperature dependence extrapolated to calculate the rate at 37° C. Very slow rates of peptide hydrolysis (Table 2), with half-lives calculated for 37° C. of greater than 2000 days, were observed. As expected, the rate of hydrolysis was slower, by about 3-fold, for incubations performed in pH 5 buffer.

Molecule	% Pro peak formation/day at 90° C.
Fab1: peptide mimic of Fab1 CDR-L3 segment, QQWSSNPWTFGQ	1.0 % Pro peak formation/day
Fab2: peptide mimic of Fab2 CDR-L3 segment, QQGYGNPFTFGQ	2.9 % Pro peak formation/day
Mab3: peptide mimic of Mab3 CDR-L3 segment, QQWSSNPYTFGQ	2.9 % Pro peak formation/day
Mab4: peptide mimic of Mab4 CDR-L3 segment, QQGINNPLTFGQ	1.9 % Pro peak formation/day

Test: Neutral pH 37 C stability of commercial antibodies, fragmentation by mass spectroscopy and CE-SDS
Assay type: physicochemical
Conditions: PBS pH 7.4, up to 4 weeks at 37° C.
Procedure: In addition to the data shown for Mab5 in Table 1 and FIG. 9, neutral pH, 37 C stability data was generated for all except muromonab, teplizumab, tovetumab, and visilizumab. Antibodies formulated in PBS, pH 7.4, were incubated for up to 4 weeks at 37° C. and evidence for fragmentation was obtained by mass spectroscopy and capillary electrophoresis sodium dodecyl sulfate (CE-SDS) for both intact and reduced samples.

Molecule	Light chain fragment observed? (hydrolysis at Asn-Pro in CDR-L3)
veltuzumab [reference compound]	detected and Yes
otlertuzumab (antibody, chains of the INN, looked up, V domains shown) VH: EVQLVQSGAEVKKPGESLKISCKGSGYSFTGYNMNWVRQMPGKGLEWMGNIDPYYGGTTYNRKFKGQVTISADKSISTAYLQWSSLKASDTAMYYCARSVGPFDSWGQGTLVTVSS VL: EIVLTQSPATLSLSPGERATLSCRASENVYSYLAWYQQKPGQAPRLLIYFAKTLAEGIPARFSGSGSGTDFTLTISSLEPEDFAVYYCQHHSDNPWTFGQGTKVEIK	not and No
